The text below walks through data of doi:10.1101/2021.08.20.457142.

To fix the notation:
B1: MKK7 D-site peptide (second D-site) / JNK1 alpha1 (MAPK8 isoform 1) L198A, full length (parent complex)
chain 1: SQPQRPRPTLQLPLANEAFEQP
chain 2: MSRSKRDNNFYSVEIGDSTFTVLKRYQNLKPIGSGAQGIVCAAYDAILERNVAIKKLSRPFQNQTHAKRAYRELVLMKCVNHKNIIGLLNVFTPQKSLEEFQDVYIVMELMDANLCQVIQMELDHERMSYLLYQMLCGIKHLHSAGIIHRDLKPSNIVVKSDCTLKILDFGLARTAGTSFMMTPYVVTRYYRAPEVIAGMGYKENVDLWSVGCIMGEMVCHKILFPGRDYIDQWNKVIEQLGTPCPEFMKKLQPTVRTYVENRPKYAGYSFEKLFPDVLFPADSEHNKLKASQARDLLSKMLVIDASKRISVDEALQHPYINVWYDPSEAEAPPPKIPDKQLDEREHTIEEWKELIYKEVMDLEERTKNGVIRGQPSPLAQVQQ

Variants of B1 are the subject of the assay.
On to chain 1 R7T, for which the screen value was 0.638 Z-score of the enrichment rate within one screen of 711 sequences.

With chain 1 R7Y, the screen value was 0.245 Z-score of the enrichment rate within one screen of 711 sequences.

For chain 1 R7C, the screen value was 0.232 Z-score of the enrichment rate within one screen of 711 sequences.

For chain 1 Q4A, chain 1 T9A, the screen value is 1.32 Z-score of the enrichment rate within one screen of 711 sequences.

Consider chain 1 P6R, for which the screen value is 1.25 Z-score of the enrichment rate within one screen of 711 sequences.

On to chain 1 P6W, for which the screen value is 1.02 Z-score of the enrichment rate within one screen of 711 sequences.

For chain 1 P6S, the screen value is 0.764 Z-score of the enrichment rate within one screen of 711 sequences.

Consider chain 1 P6E, for which the screen value was 1.2 Z-score of the enrichment rate within one screen of 711 sequences.

Turning to chain 1 P3K, the screen value is 1.42 Z-score of the enrichment rate within one screen of 711 sequences.

Regarding chain 1 P3C, the screen value was 1.42 Z-score of the enrichment rate within one screen of 711 sequences.

With chain 1 P3A, the screen value is 1.42 Z-score of the enrichment rate within one screen of 711 sequences.

Consider chain 1 P3L, for which the screen value was 1.07 Z-score of the enrichment rate within one screen of 711 sequences.

chain 1 P3T: the screen value is 1.7 Z-score of the enrichment rate within one screen of 711 sequences.

Turning to chain 1 P3E, the screen value was 1.21 Z-score of the enrichment rate within one screen of 711 sequences.

Regarding chain 1 P3Y, the screen value was 1.41 Z-score of the enrichment rate within one screen of 711 sequences.

Turning to chain 1 L10A, chain 1 L12A, the screen value was -0.511 Z-score of the enrichment rate within one screen of 711 sequences.

Regarding chain 1 P8Y, the screen value was 0.574 Z-score of the enrichment rate within one screen of 711 sequences.

For chain 1 P8R, the screen value was 0.631 Z-score of the enrichment rate within one screen of 711 sequences.

With chain 1 P8H, the screen value is 0.889 Z-score of the enrichment rate within one screen of 711 sequences.

Take chain 1 P8G: the screen value is 0.304 Z-score of the enrichment rate within one screen of 711 sequences.

chain 1 T9I: the screen value is 1.93 Z-score of the enrichment rate within one screen of 711 sequences.

chain 1 T9S: the screen value is 1.4 Z-score of the enrichment rate within one screen of 711 sequences.

For the variant chain 1 T9A, the screen value is 0.998 Z-score of the enrichment rate within one screen of 711 sequences.

On to chain 1 T9V, for which the screen value was 1.12 Z-score of the enrichment rate within one screen of 711 sequences.

As to chain 1 T9D, the screen value is 0.933 Z-score of the enrichment rate within one screen of 711 sequences.

Regarding chain 1 R5N, the screen value was 0.604 Z-score of the enrichment rate within one screen of 711 sequences.

With chain 1 R5K, the screen value was 1.36 Z-score of the enrichment rate within one screen of 711 sequences.

With chain 1 R5G, the screen value was 0.242 Z-score of the enrichment rate within one screen of 711 sequences.

In the case of chain 1 R5Q, the screen value is 1.01 Z-score of the enrichment rate within one screen of 711 sequences.

Regarding chain 1 R5T, the screen value is 1.01 Z-score of the enrichment rate within one screen of 711 sequences.

For chain 1 P8A, chain 1 N16A, the screen value was 0.523 Z-score of the enrichment rate within one screen of 711 sequences.

Consider chain 1 P6A, chain 1 T9A, for which the screen value was 1.16 Z-score of the enrichment rate within one screen of 711 sequences.

For the variant chain 1 Q11A, chain 1 L14A, the screen value is 0.716 Z-score of the enrichment rate within one screen of 711 sequences.

Take chain 1 R7A, chain 1 P13A: the screen value was 0.166 Z-score of the enrichment rate within one screen of 711 sequences.

As for chain 1 R5A, chain 1 N16A, the screen value is 0.479 Z-score of the enrichment rate within one screen of 711 sequences.

Turning to chain 1 L12A, chain 1 N16A, the screen value is -0.599 Z-score of the enrichment rate within one screen of 711 sequences.

Take chain 1 Q11A, chain 1 N16A: the screen value is 1.16 Z-score of the enrichment rate within one screen of 711 sequences.

Consider chain 1 Q4T, for which the screen value is 1.45 Z-score of the enrichment rate within one screen of 711 sequences.

With chain 1 Q4A, the screen value was 1.48 Z-score of the enrichment rate within one screen of 711 sequences.

In the case of chain 1 T9A, chain 1 L14A, the screen value was 0.13 Z-score of the enrichment rate within one screen of 711 sequences.

With chain 1 L12F, the screen value was 0.226 Z-score of the enrichment rate within one screen of 711 sequences.

Consider chain 1 L12T, for which the screen value is -0.304 Z-score of the enrichment rate within one screen of 711 sequences.

As to chain 1 L12R, the screen value is -0.521 Z-score of the enrichment rate within one screen of 711 sequences.

As to chain 1 P6A, chain 1 P8A, the screen value is 0.889 Z-score of the enrichment rate within one screen of 711 sequences.

Consider chain 1 Q11A, chain 1 L12A, for which the screen value was -0.605 Z-score of the enrichment rate within one screen of 711 sequences.

With chain 1 P6A, chain 1 Q11A, the screen value is 1.17 Z-score of the enrichment rate within one screen of 711 sequences.

In the case of chain 1 A15P, the screen value was 1.61 Z-score of the enrichment rate within one screen of 711 sequences.

Turning to chain 1 A15M, the screen value was 1.57 Z-score of the enrichment rate within one screen of 711 sequences.

For chain 1 A15Y, the screen value is 1.64 Z-score of the enrichment rate within one screen of 711 sequences.

As to chain 1 T9A, chain 1 N16A, the screen value is 0.774 Z-score of the enrichment rate within one screen of 711 sequences.

Consider chain 1 L14G, for which the screen value was 0.653 Z-score of the enrichment rate within one screen of 711 sequences.

On to chain 1 L14E, for which the screen value is 0.365 Z-score of the enrichment rate within one screen of 711 sequences.

For chain 1 L14S, the screen value is 0.942 Z-score of the enrichment rate within one screen of 711 sequences.

In the case of chain 1 L14W, the screen value is 1.36 Z-score of the enrichment rate within one screen of 711 sequences.

As for chain 1 L14C, the screen value is 1.27 Z-score of the enrichment rate within one screen of 711 sequences.

For the variant chain 1 L14V, the screen value was 0.826 Z-score of the enrichment rate within one screen of 711 sequences.

As for chain 1 P3A, chain 1 R7A, the screen value was 0.212 Z-score of the enrichment rate within one screen of 711 sequences.

chain 1 P13Y: the screen value is 1.41 Z-score of the enrichment rate within one screen of 711 sequences.

Regarding chain 1 P13W, the screen value was 1.26 Z-score of the enrichment rate within one screen of 711 sequences.

On to chain 1 P13I, for which the screen value was 0.957 Z-score of the enrichment rate within one screen of 711 sequences.

For the variant chain 1 P13A, the screen value was 1.14 Z-score of the enrichment rate within one screen of 711 sequences.

On to chain 1 N16I, for which the screen value was 1.55 Z-score of the enrichment rate within one screen of 711 sequences.

For chain 1 N16F, the screen value was 1.8 Z-score of the enrichment rate within one screen of 711 sequences.

In the case of chain 1 Q4A, chain 1 P6A, the screen value was 1.09 Z-score of the enrichment rate within one screen of 711 sequences.

Regarding chain 1 Q4A, chain 1 Q11A, the screen value was 1.43 Z-score of the enrichment rate within one screen of 711 sequences.

chain 1 P6A, chain 1 N16A: the screen value is 1.19 Z-score of the enrichment rate within one screen of 711 sequences.

Turning to chain 1 L14A, chain 1 N16A, the screen value is 0.658 Z-score of the enrichment rate within one screen of 711 sequences.

Regarding chain 1 P13A, chain 1 L14A, the screen value is 0.556 Z-score of the enrichment rate within one screen of 711 sequences.

Regarding chain 1 Q11K, the screen value is 1.58 Z-score of the enrichment rate within one screen of 711 sequences.

Take chain 1 Q11L: the screen value is 1.67 Z-score of the enrichment rate within one screen of 711 sequences.

As for chain 1 P3S, chain 1 Q4K, the screen value is 1.43 Z-score of the enrichment rate within one screen of 711 sequences.

As for chain 1 L10W, the screen value is -0.417 Z-score of the enrichment rate within one screen of 711 sequences.

For the variant chain 1 L10Q, the screen value was -0.301 Z-score of the enrichment rate within one screen of 711 sequences.

As for chain 1 L10H, the screen value was -0.321 Z-score of the enrichment rate within one screen of 711 sequences.

With chain 1 L10D, the screen value is -0.874 Z-score of the enrichment rate within one screen of 711 sequences.
